Test results taken from PMC7261172 (2020).

Molecular target: E. coli β-clamp labelled with RED-maleimide dye (MST) (E. coli, UniProt P0A988 1-366, RED-maleimide fluorescent dye (RED-Maleimide Labelling Kit, NanoTemper); site not stated)
Assay: MST

Row | Binder | Kd [µM]
1 | Ac-MDRFSLKWKKKRKIRRRRRRRRRRR-NH2 (also: TFA salt) [Cell penetrating APIM-peptide RFSLK (Ac-MD-RFSLK-WKKKRKI-RRRRRRRRRRR)] | 19
2 | Ac-MDRWLVKWKKKRKIRRRRRRRRRRR-NH2 (also: TFA salt) [Cell penetrating APIM-peptide RWLVK (Ac-MD-RWLVK-WKKKRKI-RRRRRRRRRRR)] | 35
